Measured values published in US20230322924A1 (Janssen / Centocor, published 2023).
Where a chain is given by its changes, count along the chain named.

B1: C33B916 (antibody, V domains shown)
VH: QVQLVESGGGVVQPGRSLRLSCATSGFTFSNYGMHWVRQAPGKGLEWVAVIWYVGSHKYYADSVKGRFTISRDNSKNTLYLQMNSLRAEDTAVYYCARDGSLCFDYWGQGTLVTVSS
VL: SYELTQPPSVSVSPGQTANISCSGVTLGYNYAYWYQQKPGQSPILVISQDTQRPSGIPERFSGSNSGNTATLTISGTQAMDEAAYYCQAWDITTVLFGGGTKLTVL
notes: OMNIMouse-derived anti-CD33 mAb; same V regions as C33B908; also called C33H256/C33L122; C33F554
B2: PS3B84 (bispecific antibody, human IgG4 S228P, kappa, lambda, F234A L235A)
heavy 1: not shown
light 1: not shown
heavy 2: QVQLQQSGPRLVRPSQTLSLTCAISGDSVFNNNAAWSWIRQSPSRGLEWLGRTYYRSKWLYDYAVSVKSRITVNPDTSRNQFTLQLNSVTPEDTALYYCARGYSSSFDYWGQGTLVTVSSASTKGPSVFPLAPCSRSTSESTAALGCLVKDYFPEPVTVSWNSGALTSGVHTFPAVLQSSGLYSLSSVVTVPSSSLGTKTYTCNVDHKPSNTKVDKRVESKYGPPCPPCPAPEAAGGPSVFLFPPKPKDTLMISRTPEVTCVVVDVSQEDPEVQFNWYVDGVEVHNAKTKPREEQFNSTYRVVSVLTVLHQDWLNGKEYKCKVSNKGLPSSIEKTISKAKGQPREPQVYTLPPSQEEMTKNQVSLTCLVKGFYPSDIAVEWESNGQPENNYKTTPPVLDSDGSFLLYSKLTVDKSRWQEGNVFSCSVMHEALHNHYTQKSLSLSLGK
light 2: QSALTQPASVSGSPGQSITISCTGTSSNIGTYKFVSWYQQHPDKAPKVLLYEVSKRPSGVSSRFSGSKSGNTASLTISGLQAEDQADYHCVSYAGSGTLLFGGGTKLTVLGQPKAAPSVTLFPPSSEELQANKATLVCLISDFYPGAVTVAWKADSSPVKAGVETTTPSKQSNNKYAASSYLSLTPEQWKSHRSYSCQVTHEGSTVEKTVAPTECS
notes: IgG4 PAA; also called PSMB344 x CD3B376
B3: PS3B76 (bispecific antibody, human IgG4 S228P, kappa, lambda, F234A L235A)
heavy 1: not shown
light 1: not shown
heavy 2: B2 heavy 2
light 2: B2 light 2
notes: IgG4 PAA; also called PSMB358 x CD3B376
B4: PS3B77 (bispecific antibody, human IgG4 S228P, kappa, lambda, F234A L235A)
heavy 1: not shown
light 1: not shown
heavy 2: B2 heavy 2
light 2: B2 light 2
notes: IgG4 PAA; also called PSMB349 x CD3B376
B5: PS3B78 (bispecific antibody, human IgG4 S228P, kappa, lambda, F234A L235A)
heavy 1: not shown
light 1: not shown
heavy 2: B2 heavy 2
light 2: B2 light 2
notes: IgG4 PAA; also called PSMB359 x CD3B376
B6: PS3B79 (bispecific antibody, human IgG4 S228P, kappa, lambda, F234A L235A)
heavy 1: not shown
light 1: not shown
heavy 2: B2 heavy 2
light 2: B2 light 2
notes: IgG4 PAA; also called PSMB360 x CD3B376
B7: PS3B80 (bispecific antibody, human IgG4 S228P, kappa, lambda, F234A L235A)
heavy 1: not shown
light 1: not shown
heavy 2: B2 heavy 2
light 2: B2 light 2
notes: IgG4 PAA; also called PSMB347 x CD3B376
B8: PS3B81 (bispecific antibody, human IgG4 S228P, kappa, lambda, F234A L235A)
heavy 1: not shown
light 1: not shown
heavy 2: B2 heavy 2
light 2: B2 light 2
notes: IgG4 PAA; also called PSMB361 x CD3B376
B9: PS3B82 (bispecific antibody, human IgG4 S228P, kappa, lambda, F234A L235A)
heavy 1: not shown
light 1: not shown
heavy 2: B2 heavy 2
light 2: B2 light 2
notes: IgG4 PAA; also called PSMB362 x CD3B376
B10: BLW-3B4 (antibody, V domains shown)
VH: QVQLQQSGPGLVKPSQTLSLTCAISGDSVFNNNAAWSWIRQSPSRGLEWLGRTYYRSKWLYDYAVSVKSRITVNPDTSRNQFTLQLNSVTPEDTALYYCVRGYSSSFDYWGQGTLVTVSS
VL: QSALTQPASVSGSPGQSITISCTGTSRDIGTYKFVSWYQQHPDKAPKVLLYEVSKRPSGVSSRFSGSKSGNTASLTISGLQAEDQADYHCCSYAGSGTLLFGGGTKLTVL
notes: OmniRat hybridoma supernatant: human V regions on rat constant regions; also called V regions cloned as CD3B313 (CD3H218/CD3L125)
B11: BLW-2B4 (antibody, V domains shown)
VH: B10 VH
VL: B10 VL with S54N
notes: OmniRat hybridoma supernatant: human V regions on rat constant regions; also called V regions cloned as CD3B311 (CD3H218/CD3L123)
B12: BLW-2E6 (antibody, V domains shown)
VH: B10 VH with G10R, K13R, V100A
VL: B10 VL with R27S, D28N
notes: OmniRat hybridoma supernatant: human V regions on rat constant regions; also called V regions cloned as CD3B312 (CD3H219/CD3L124)
B13: BLX-1F8 (antibody, V domains shown)
VH: B10 VH with N87K, V100S
VL: B10 VL with R27S, G70D
notes: OmniRat hybridoma supernatant: human V regions on rat constant regions; also called V regions cloned as CD3B314 (CD3H220/CD3L126)
B14: BLX-2E9 (antibody, V domains shown)
VH: B10 VH with A34G, V100A
VL: B10 VL with R27S, D28N
notes: OmniRat hybridoma supernatant: human V regions on rat constant regions; also called V regions cloned as CD3B315 (CD3H221/CD3L124)
B15: BLX-3F4 (antibody, V domains shown)
VH: B10 VH with Q3R, S66T, N87T, V100A
VL: B10 VL with R27S, D28N
notes: OmniRat hybridoma supernatant: human V regions on rat constant regions; also called V regions cloned as CD3B316 (CD3H222/CD3L124)
B16: BLX-3G8 (antibody, V domains shown)
VH: B10 VH with S37T, N87K, V100S
VL: B10 VL with R27S, D28N
notes: OmniRat hybridoma supernatant: human V regions on rat constant regions; also called V regions cloned as CD3B317 (CD3H223/CD3L124)

What follows are binders tested against T1, Cyno CD33 full length (cynomolgus monkey) (assay: flow cytometry on HEK293F cells expressing cyno CD33).
T1 construct: also called cyCD33
Description: (§1) The purified antibodies were assessed for binding to stably transfected HEK293F cells expressing human CD33 or cyno CD33 (generation described above) along with the parental HEK293F as negative control. Cells were harvested from tissue culture flasks using non-enzymatic dissociation buffer (Thermo Scientific). The flasks were rinsed twice with PBS and dissociation buffer was added to the flask, and the flask was incubated for 10 minutes at 37° C. until the cells became non-adherent. The cells were centrifuged at 300 g for 5 minutes and resuspended at 1.0×10⁶ cells/ml in staining buffer (Becton Dickinson; Franklin Lakes, NJ). 50,000 cells/well of each cell type was plated in 50 μl of staining buffer in round bottom plates (Becton Dickinson). […] 100 μl staining buffer was added to all wells of each plate, the plates were spun at 300 g for 5 min, the buffer was removed, 200 μl staining buffer was added to all wells of each plate, the plates were spun at 300 g for 5 min, and the buffer was removed. 50 μl of 2 μg/ml of Goat-anti-human Fc AF647 secondary antibody (Jackson Immunoresearch; West Grove, PA) was added to all wells of the plates, and the plates were incubated for 30 min at 4° C. 100 μl staining buffer was added to all wells of the plates, the plates were spun at 300 g for 5 min, and the buffer was removed. 200 μl running buffer (running buffer is Staining buffer, 1 mM EDTA, 0.1% Pluronic Acid) was added to all wells of the plates, the plates were spun at 300 g for 5 min, and the buffer was removed. 30 μl running buffer containing Sytox Green live/dead dye (ThermoFisher) was added to all wells with cells and the plates were read on an iQue IntelliCyt flow cytometer. Cells were gated on forward vs. side scatter to eliminate debris, then on singlets and then on live cells which excluded the Sytox stain. Antibody binding was assessed by the mean fluorescence intensity in the AF647 channel.
(§2) The OmniMouse panel (8 mAbs total) was generated separately and characterized further for binding to cells.
For B1, the “MFI at 0 nM (background)” value was 104 MFI, the “MFI at 0.6 nM” value was 22800 MFI and the “MFI at 6 nM” value was 33300 MFI. For the same binder, the “MFI at 60 nM” value was 41000 MFI.

The binders below were run against T2, human PSMA on cells (LNCaP) (human, UniProt Q04609 1-750) (assay: flow cytometry cell binding assay on LNCaP cells).
T2 construct: whole, on cells; also called LNCaP cells
T2 sequence (Q04609 whole entry): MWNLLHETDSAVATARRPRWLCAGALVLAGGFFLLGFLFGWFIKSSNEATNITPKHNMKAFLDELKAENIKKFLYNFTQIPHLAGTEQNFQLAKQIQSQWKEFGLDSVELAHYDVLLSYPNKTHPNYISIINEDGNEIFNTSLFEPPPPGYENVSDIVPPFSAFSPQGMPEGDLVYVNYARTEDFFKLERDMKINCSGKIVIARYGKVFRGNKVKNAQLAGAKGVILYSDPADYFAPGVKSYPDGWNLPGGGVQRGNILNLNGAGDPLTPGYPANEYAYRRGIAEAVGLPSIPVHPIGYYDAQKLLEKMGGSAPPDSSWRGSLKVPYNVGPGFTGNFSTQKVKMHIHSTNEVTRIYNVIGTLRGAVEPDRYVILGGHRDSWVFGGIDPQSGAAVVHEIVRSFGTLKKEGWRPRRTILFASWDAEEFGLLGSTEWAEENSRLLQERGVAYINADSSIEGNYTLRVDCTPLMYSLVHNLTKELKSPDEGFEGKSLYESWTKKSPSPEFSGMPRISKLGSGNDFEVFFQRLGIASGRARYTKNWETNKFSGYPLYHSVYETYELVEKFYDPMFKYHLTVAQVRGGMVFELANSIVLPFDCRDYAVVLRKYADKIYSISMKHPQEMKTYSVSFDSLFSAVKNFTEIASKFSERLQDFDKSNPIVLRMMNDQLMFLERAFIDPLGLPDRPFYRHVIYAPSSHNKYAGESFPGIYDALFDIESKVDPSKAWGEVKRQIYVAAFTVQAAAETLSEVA
Description: PSMA×CD3 bispecific antibodies were tested for binding to PSMA positive cell line, LNCAP, to PSMA negative cell line, PC3. To assess the binding capabilities of the PSMA bispecific antibodies, the cell-binding assay was utilized (described previously). Bispecific antibodies were normalized for protein concentration and then incubated with the same number of cells expressing either human or cyno PSMA. The MFI at each concentration was collected by flow cytometry and plotted as a function of concentration. Data was transformed via log 10 and then plotted. Nonlinear regression of binding curves was done to determine EC50s.
B2: binds.
B3: binds.
B4: binds.
B5: binds.
B6: binds.
B7: binds.
B8: binds.
B9: binds.

These binders were tested against T3, human CD3 on human T cells (human, UniProt P07766 23-207) (assay: flow cytometry, Jurkat CD3+ (E6-1)).
T3 construct: Native TCR-CD3 complex on cells; also called primary human T cells; human pan T cells
T3 sequence (P07766 23-207 limits assumed): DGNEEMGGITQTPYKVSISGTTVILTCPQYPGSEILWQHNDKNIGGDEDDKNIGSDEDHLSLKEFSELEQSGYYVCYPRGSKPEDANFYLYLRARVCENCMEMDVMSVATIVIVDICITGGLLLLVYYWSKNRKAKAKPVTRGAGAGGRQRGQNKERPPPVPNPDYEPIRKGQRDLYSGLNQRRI
B10 was tested, and the “% positive” value was 72% and the geomean was 199000 geometric mean fluorescence.
B11 was tested, and the “% positive” value was 53% and the geomean was 148000 geometric mean fluorescence.
For B12, the “% positive” value was 3% and the geomean was 7500 geometric mean fluorescence.
With B13 the “% positive” value was 53% and the geomean was 148000 geometric mean fluorescence.
B14 was tested, and the “% positive” value was 72% and the geomean was 199000 geometric mean fluorescence.
In the case of B15, the “% positive” value is reported as 66% and the geomean is reported as 182000 geometric mean fluorescence.
B16 was tested, and the “% positive” value was 77% and the geomean was 215000 geometric mean fluorescence.

What follows are binders tested against T4, Human CD33 full length (human, UniProt P20138 18-364) (assay: flow cytometry on HEK293F cells expressing human CD33).
T4 construct: also called huCD33
T4 sequence (P20138 18-364 limits assumed): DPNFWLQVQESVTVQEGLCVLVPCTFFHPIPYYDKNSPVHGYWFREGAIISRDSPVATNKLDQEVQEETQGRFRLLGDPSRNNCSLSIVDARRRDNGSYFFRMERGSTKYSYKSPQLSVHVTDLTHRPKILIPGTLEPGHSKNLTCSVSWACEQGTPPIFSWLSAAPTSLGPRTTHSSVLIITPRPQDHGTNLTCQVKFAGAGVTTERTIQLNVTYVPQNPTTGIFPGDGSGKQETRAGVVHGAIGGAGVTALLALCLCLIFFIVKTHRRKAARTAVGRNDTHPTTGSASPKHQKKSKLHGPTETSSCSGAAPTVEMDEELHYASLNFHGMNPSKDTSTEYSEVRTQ
Description: as §1, §2
For B1, the “MFI at 0 nM (background)” value was 167 MFI, the “MFI at 0.6 nM” value was 193000 MFI and the “MFI at 6 nM” value was 404000 MFI. The “MFI at 60 nM” value was 448000 MFI.

What follows are binders tested against T5, cynomolgus CD3e/d complex on cells transiently transfected with pcDNA3.1-CD3e/d-cyn-mix (cynomolgus, UniProt Q95LI5 22-198; Q95LI8 22-171) (assay: CELISA, hybridoma supernatant).
T5 construct: Tagged screening constructs
T5 sequence (Q95LI5 22-198 limits assumed, chain 1 of 2): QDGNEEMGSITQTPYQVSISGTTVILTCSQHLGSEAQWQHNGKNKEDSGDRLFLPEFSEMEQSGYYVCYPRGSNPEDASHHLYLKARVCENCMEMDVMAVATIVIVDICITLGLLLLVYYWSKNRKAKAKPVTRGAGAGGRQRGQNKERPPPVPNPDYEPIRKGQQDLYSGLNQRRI
T5 sequence (Q95LI8 22-171 limits assumed, chain 2 of 2): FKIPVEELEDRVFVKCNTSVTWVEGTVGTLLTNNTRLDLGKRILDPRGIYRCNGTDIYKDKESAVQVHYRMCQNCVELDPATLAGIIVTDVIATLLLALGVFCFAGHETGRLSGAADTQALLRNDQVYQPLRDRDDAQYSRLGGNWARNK
Description: (§3) Hybridoma supernatants from fusions BLW (with magnetic bead depletion of lymphocytes) and BLX (without magnetic bead depletion of lymphocytes) were analyzed a) by a cell-based ELISA (CELISA) on cells transiently transfected with human and cynomolgus cDNA cloned into screening vectors: pOPT-CD3e-hum-epsilon-TCE.OMT+pOPT-CD3d-hum-delta.OMT, 1:1 (pOPT-CD3e/d-hum-mix) and pcDNA3.1-CD3e-cyn-[…]+pcDNA3.1-CD3d-cyn-delta, 1:1 (pcDNA3.1-CD3e/d-cyn-mix). For CELISA negative control, non-transfected mammalian cells were incubated with hybridoma supernatants and detected with the secondary Bethyl antibody. For a CELISA transfection control, mammalian cells, transfected with the constructs described above, were detected with anti-tag antibody.
For B10, the “% positive” value was 66% and the Rfu was 320 rfu.
In the case of B11, the “% positive” value is reported as 47% and the Rfu is reported as 230 rfu.
With B12 the “% positive” value was 25% and the Rfu was 121 rfu.
For B13, the “% positive” value was 47% and the Rfu was 230 rfu.
With B14 the “% positive” value was 66% and the Rfu was 320 rfu.
In the case of B15, the “% positive” value is reported as 76% and the Rfu is reported as 371 rfu.
With B16 the “% positive” value was 70% and the Rfu was 340 rfu.

What follows are binders tested against T6, human CD3e/d complex on cells transiently transfected with pOPT-CD3e/d-hum-mix (human, UniProt P07766 23-126; P04234 22-171) (assay: CELISA, hybridoma supernatant).
T6 construct: Tagged screening constructs
T6 sequence (P07766 23-126 limits assumed, chain 1 of 2): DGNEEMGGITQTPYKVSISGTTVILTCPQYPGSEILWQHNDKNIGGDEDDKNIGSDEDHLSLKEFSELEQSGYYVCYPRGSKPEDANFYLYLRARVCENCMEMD
T6 sequence (P04234 22-171 limits assumed, chain 2 of 2): as the sequence (Q95LI8 22-171 limits assumed, chain 2 of 2) above, with V5I, K15N, V20I, T32S, N33D, N34I, A64T, N74S, L83V, R141H counted along it
Description: as §3
For B10, the “% positive” value was 127% and the Rfu was 867 rfu.
In the case of B11, the “% positive” value is reported as 101% and the Rfu is reported as 689 rfu.
With B12 the “% positive” value was 34% and the Rfu was 231 rfu.
In the case of B13, the “% positive” value is reported as 101% and the Rfu is reported as 689 rfu.
For B14, the “% positive” value was 127% and the Rfu was 867 rfu.
With B15 the “% positive” value was 131% and the Rfu was 896 rfu.
For B16, the “% positive” value was 111% and the Rfu was 759 rfu.

The binders below were run against T7, Human CD33 ECD-HSA (human) (assay: ProteOn SPR, mAb captured on anti-human Fc, antigen as analyte).
T7 construct: CD33 ECD fused at the C-terminus to monomeric HSA (C58S) and a six-histidine tag; also called C33W2; huCD33 ECD-HSA
Description: (§4) The panel of mAbs was then further characterized for full affinity analysis as well as epitope binning. The binding of anti-CD33 mAbs to recombinant human CD33 ECD-HSA (C33W2) and cyno CD33 ECD-HSA (C33W1) was measured by ProteOn SPR (Bio-Rad). […] Different mAbs were captured on the anti-human Fc IgG surface at 0.25 or 0.5 μg/ml (160-300 RU) in vertical ligand orientation, with the 6th ligand channel as no ligand surface control. Human and cyno CD33-HSA proteins at 0.3 μM concentration in 3-fold dilution series of 5 concentrations flew in as analyte to bind to captured mAbs in the horizontal orientation. A buffer sample was also injected in the 6th channel to monitor the dissociation of captured mAb and baseline stability. […] The raw biding data were processed by double referencing after subtracting the response data from: 1) the inter-spot to correct for the non-specific interactions between the Ag and the empty chip surface; 2) the buffer channel to correct for baseline drifting due to the dissociation of captured mAb surface over time. The processed data at all antigen concentrations for each mAb were globally fit to a 1:1 simple Langmuir binding model to extract estimates of the kinetic (kₒₙ, koff) and affinity (Kd) constants.
With B1 the Kd was 0.655 nM, the koff was 0.000411 s⁻¹ and the kon was 627000 M⁻¹ s⁻¹.

Each binder was assayed against T8, Cyno CD33 ECD-HSA (cynomolgus monkey) in the same assay as above.
T8 construct: Cyno CD33 ECD fused to HSA and a six-histidine tag; also called C33W1
Description: as §4
In the case of B1, the Kd is reported as 0.852 nM, the koff is reported as 0.000403 s⁻¹ and the kon is reported as 473000 M⁻¹ s⁻¹.
